Positions count from the first letter of the chain named. Values belong to the molecule of their own block, whether it stands above or below them.
Tests used:
human LDLa-linker = molecular target: T1, human LDLa-linker (Homo sapiens, UniProt Q8WXD0); experiment: Biacore S200 binding to human LDLa-linker protein
T1 construct: human LDLa linker [huRXFP2-LDLa-linker(38-105)-ratFc-8XHIS]; enterokinase cleavage site (C); rat Fc (C, cleaved yes); 8xHis (C, cleaved yes); made in house; host or cells: Expi293
Description: Goat anti Rat Fc gamma fragment specific (Jackson Immunoresearch, 112-005-071) was immobilized at 30 µg/mL to a Series S CM5 chip (Cytiva Life Sciences). In three separate runs, twenty different purified recombinant rat anti RXFP2 antibodies were then captured to the CM5 chip at a concentration of 5 µg/mL. The antibody panel was captured; rat LDLa-linker or human LDLa-linker protein was flowed as analyte at the following concentrations: 20 nM, 10 nM, 5 nM, 2.5 nM, […], and 0 nM. Antibody kinetics were evaluated using a 1:1 fit model (Biacore S200).

rat RXFP2 [1] = molecular target: T2, rat RXFP2 (Rattus norvegicus, UniProt F7EMH8); experiment: INSL3-stimulated cAMP assay in HEK293 stably expressing rat RXFP2; conditions: INSL3 EC80-stimulated cAMP, stable expression, N = 2; for IC50: read-out: HEK293-rat RXFP2 cAMP IC50;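 for all read-outs here: cAMP measured with an HitHunter kit in 384-well plates, 11-point dose–response curves up to 1 µM antibody, four-parameter variable-slope fit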
human RXFP2 = human RXFP2 (Homo sapiens, UniProt Q8WXD0); experiment: INSL3-stimulated cAMP assay in HEK293 stably expressing human RXFP2; conditions: INSL3 EC80-stimulated cAMP, stable expression, N = 2; for IC50: read-out: HEK293-human RXFP2 cAMP IC50
[2] = molecular target: T3, human LDLa peptide (UnitProt Q8WXD0 43-80) (Homo sapiens, UniProt Q8WXD0); experiment: ELISA binding to linker-less human LDLa peptide
T3 construct: human LDLa peptide (Q8WXD0 43-80)
Description: The human/rat RXFP2 cross reactive antibodies belong to two epitope bins and were further evaluated for binding to the linker-less human LDLa peptide (UnitProt Q8WXD0 43-80) by ELISA. […] The different domain requirements for binding are consistent with results from the binning experiment showing 4F6 and 4G6 are in a separate bin from 4B1.
Rat LDLa-linker_ratFc, human LDLa-linker_ratFc, or ratFc, or human LDLa peptide (Q8WXD0 43-80) was diluted to 1 µg/mL in 1X PBS and immobilized in separate 96-well ELISA plates (Nunc Maxisorp), 50 µL/well. The plates were then incubated overnight at 4 °C. The following day the plates were washed three times with ELISA wash buffer (PBS + 0.05% Tween-20) and then blocked with ELISA blocking buffer (PBS + 0.05% Tween-20 + 1% BSA), 200 µL/well, and incubated 1 h at room temperature on a shaker. Plates were again washed three times followed by the addition of the primary antibodies. Hybridoma supernatant was added neat, 50 µL/well; mouse serum was added 1:100 and then serially diluted 1:2 for 8 points, 50 µL/well. Purified antibodies were added 5 µg/mL in the first well and serially diluted down the plate 1:2 for 8 points, 50 µL/well. Primary antibody was incubated for 1 h at room temperature on a shaker. […] Stopping solution (2N Sulfuric acid) was added to the plates 50 µL/well, and then read on a plate reader (SpectraMax Molecular Devices) at 450 nm.

rat RXFP2 [3] = molecular target: T2, rat RXFP2; experiment: INSL3-stimulated CYP11B1 mRNA expression in H295R stably expressing rat RXFP2; assay type: cell-based; parameters: expressed in transfected cells; conditions: INSL3 EC80 (3.5 nM), 48 h, qPCR; N = 2
Description: (§1) RXFP2 antagonists were added to H295R-rRXFP2 before addition of INSL3 EC80 (3.5 nM) for 48 h, whereupon the cells and supernatants were collected. CYP11B1 and CYP11B2 mRNA were determined by qPCR and the RXFP2 blocker potencies were calculated (Fig. 5a). Fifteen antibodies have IC50s < 50 nM, and three of the top antibodies (1F2, 4G6, and 2D4) were selected for evaluation in steroid hormone secretion assays by ELISA.
(§2) Data entered as XY table, with x = [Inhibitor] (nM) and y = CYP11B2 or CYP11B1 fold change.

rat RXFP2 [4] = molecular target: T2, rat RXFP2; experiment: Cortisol secretion (ELISA) in H295R stably expressing rat RXFP2; assay type: cell-based; parameters: expressed in transfected cells; conditions: H295R-rRXFP2, 3.5 nM INSL3, 48 h, read-out: IC50 on INSL3-induced cortisol release
Description: as §1
(§3) The day after seeding, H295R cells were treated and incubated for 48 h before supernatants and cell lysates were collected. Treatments included INSL3, IgG, 1F2, and 4G6 at 0.035 pM–3.5 µM, 2D4 at 0.01 nM–1 uM, or phosphate buffered saline control. In RXFP2 antagonist assays, 3.5 nM INSL3 was used as the stimulus. Cortisol present in the adrenal cell supernatant at 48 h post treatment was detected by ELISA (R&D KGE008B). Sample dilution was optimized at 1/90 using a standard curve. Aldosterone was below the limit of detection by ELISA (R&D KGE016) and required liquid–liquid extraction (LLE) twice using methyl tetra butyl ether. Post extraction samples were dried (SPE Nitrogen dryer) and reconstituted for ELISA analysis. All samples were run in duplicates.

rat RXFP2 [5] = molecular target: T2, rat RXFP2; experiment: INSL3-stimulated CYP11B2 mRNA expression in H295R stably expressing rat RXFP2; assay type: cell-based; parameters: expressed in transfected cells; conditions: INSL3 EC80 (3.5 nM), 48 h, qPCR; N = 2
Description: as §1, §2

[6] = Pharmacokinetic study of RXFP2 mAbs in rat; assay type: in vivo, Wistar Han rats; conditions: for half-life, extrapolated values: Wistar Han rats, 1 mg/kg sc., over 28 days; for estimated dose to achieve tenfold higher IC50 HEK-rRXFP2 cAMP activity for approximately 28 days in rat: from trough concentration, dose-linearity assumed; for AUClast / Cmax / Tmax: male Wistar Han rats, 1 mg/kg s.c., n = 3, mean ± SD
Description: For the pharmacokinetic study of RXFP2 mAbs in rat, 1G1, 2D4, 4B1, 4G6, 1F2, and 3F3 were prepared in phosphate buffered saline (0.100 mg/mL) with low endotoxin (≤ 0.76 EU/mL). Adult male Wistar Han rats (n = 3/mAb) were administered 1 mg/kg subcutaneously (10 mL/kg). Blood samples (100 µL) were collected in EDTA containing tubes at 0.25, 3, 6 24, 48, 96, 168 (day 7), 336 (day 14), 504 (day 21), and 672 (day 28) hours post dose, immediately centrifuged (6100 rpm), and 50 µL plasma stored at − 80 °C until assay. Rats maintained health throughout the study and were anesthetized (isoflurane to effect) and euthanized on day 28.
Frozen rat plasma samples were thawed and analyzed using a qualified analytical method based on sample dilution, followed by Electrochemiluminescence immunoassay analysis. The lower limit of quantification (LLQ) was 0.1 µg/mL using a 10 µL aliquot of 51-fold diluted rat plasma with a higher limit of quantification (HLQ) of 10 µg/mL. RXFP2 mAbs were captured with LDLa protein and detected with sulfo-tag labeled mouse anti-rat IgG2b. The computer systems that were used to acquire and quantify data included Gyrolab Workstation Version 8.1.5 and Watson LIMS version 7.6.1. Rat pharmacokinetic parameters were calculated by non-compartmental analysis (NCA) analysis using WinNonlin Phoenix 64 (version 8.3). Values are reported in mean ± standard deviation.

rat RXFP2 [7] = molecular target: T2, rat RXFP2; experiment: Aldosterone secretion (ELISA) in H295R stably expressing rat RXFP2; assay type: cell-based; parameters: expressed in transfected cells; conditions: H295R-rRXFP2, 3.5 nM INSL3, 48 h, read-out: IC50 on INSL3-induced aldosterone release
Description: as §1, §3

T2 sequence (F7EMH8 20-737): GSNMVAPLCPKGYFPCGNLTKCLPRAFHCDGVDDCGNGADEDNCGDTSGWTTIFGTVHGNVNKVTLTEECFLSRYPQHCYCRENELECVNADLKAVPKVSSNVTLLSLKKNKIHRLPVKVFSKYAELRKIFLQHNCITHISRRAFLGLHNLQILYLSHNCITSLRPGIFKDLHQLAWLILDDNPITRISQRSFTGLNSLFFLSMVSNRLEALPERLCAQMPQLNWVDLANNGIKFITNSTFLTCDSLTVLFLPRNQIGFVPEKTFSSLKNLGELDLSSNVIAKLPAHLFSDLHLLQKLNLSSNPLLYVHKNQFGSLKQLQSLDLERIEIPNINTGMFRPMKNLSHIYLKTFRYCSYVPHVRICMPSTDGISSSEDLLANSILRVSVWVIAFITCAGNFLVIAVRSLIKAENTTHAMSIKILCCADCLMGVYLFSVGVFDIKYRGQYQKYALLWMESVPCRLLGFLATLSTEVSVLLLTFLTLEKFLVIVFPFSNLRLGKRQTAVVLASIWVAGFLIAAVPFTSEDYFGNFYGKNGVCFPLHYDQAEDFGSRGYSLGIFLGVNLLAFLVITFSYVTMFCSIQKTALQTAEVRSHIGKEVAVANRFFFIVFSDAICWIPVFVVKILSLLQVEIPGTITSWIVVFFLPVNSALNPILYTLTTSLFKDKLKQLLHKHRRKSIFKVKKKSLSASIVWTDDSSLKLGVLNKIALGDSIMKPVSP
Sequence of human RXFP2 (Q8WXD0 whole entry): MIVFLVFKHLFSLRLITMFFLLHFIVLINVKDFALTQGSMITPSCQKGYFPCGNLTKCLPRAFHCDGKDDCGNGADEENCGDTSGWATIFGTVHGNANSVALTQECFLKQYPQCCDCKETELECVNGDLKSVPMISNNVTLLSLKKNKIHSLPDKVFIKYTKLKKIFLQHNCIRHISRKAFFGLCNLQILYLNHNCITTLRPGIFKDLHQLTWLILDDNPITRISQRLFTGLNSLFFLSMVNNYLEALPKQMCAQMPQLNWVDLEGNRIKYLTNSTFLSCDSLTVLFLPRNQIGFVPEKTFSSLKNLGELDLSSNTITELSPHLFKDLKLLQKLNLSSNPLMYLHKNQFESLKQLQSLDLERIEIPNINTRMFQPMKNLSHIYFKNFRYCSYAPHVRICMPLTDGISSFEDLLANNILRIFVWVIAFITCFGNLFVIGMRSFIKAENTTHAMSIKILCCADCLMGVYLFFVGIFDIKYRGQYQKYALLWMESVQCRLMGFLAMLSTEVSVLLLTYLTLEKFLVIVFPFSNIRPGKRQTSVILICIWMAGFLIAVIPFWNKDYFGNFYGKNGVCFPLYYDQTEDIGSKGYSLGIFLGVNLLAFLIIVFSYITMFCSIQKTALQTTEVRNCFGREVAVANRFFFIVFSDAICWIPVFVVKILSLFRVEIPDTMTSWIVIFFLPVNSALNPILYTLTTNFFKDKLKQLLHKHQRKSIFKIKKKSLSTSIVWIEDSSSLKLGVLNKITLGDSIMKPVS
T1 sequence (Q8WXD0 38-105): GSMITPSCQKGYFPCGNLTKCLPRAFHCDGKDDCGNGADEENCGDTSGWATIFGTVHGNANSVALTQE
T3 sequence (Q8WXD0 43-80 limits assumed): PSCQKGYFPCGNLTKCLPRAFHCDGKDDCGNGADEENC

cross reactivity to the human LDLa-linker (human LDLa-linker): cross reactivity
HEK293-rat RXFP2 cAMP % Max Response (rat RXFP2 [1]): 80.4%
IC50 (rat RXFP2 [1]): 48.5 nM
HEK293-human RXFP2 cAMP % Max Response (human RXFP2): ~ 82.7%
IC50 (human RXFP2): ~354 nM
binding to linker-less human LDLa peptide [2]: bind
B1: 4F6: Human/rat cross-reactive RXFP2 monoclonal antibody, rat IgG2b backbone; binds the LDLa domain (antibody, V domains shown)
VH: EVQLQQSGPELVKPGASVKMSCKASGYTFTNYVLHWVKQKPGQGLEWIGYINPYNDGSKYNEKFKGRATLTSDKSSSTAYMELSSLTSEDSAVYYCARGGWLLDYFDYWGQGTTLTVSS
VL: DVLMTQSPLSLPVSLGEQASISCRSSQSIVHSDGDTYLEWYLQKPGQSPNLLIYKVSNRFSGVPDRFSGSGSGTDFTLKISRVEAEDLGVYYCFQGSHVPPTFGGGTKLEIK

IC50 (rat RXFP2 [3]): 0.32 nM
HEK293-rat RXFP2 cAMP % Max Response (rat RXFP2 [1]): 76.1%
IC50 (rat RXFP2 [1]): 19.1 nM
IC50 (rat RXFP2 [4]): 0.21 nM
IC50 (human RXFP2): ~405 nM
IC50 (rat RXFP2 [5]): 0.1 nM
B2: 1F2: RXFP2 monoclonal antibody from hybridoma, recombinantly expressed in a rat IgG2b backbone (antibody, V domains shown)
VH: QVQLKQSGPGLVQPSQSLSITCTVSGFSLTAYGVNWVRQSPGKGLEWLGVIWSGGNTDYNAPFISRLSITKDNSKSQVFFKMNSLEADDTAIYYCARAKGYYAMDYWGQGTSVTVSS
VL: DIQMTQSPASLSVSVGESVTITCRATENIYSNLVWYQQKQGQSPQLLVYAVTSLADGVPSRFSGSGSGTQYSLKINSLQSEDFGTYYCQHFWGTPYTFGGGTKLEIK
half-life, extrapolated values [6]: ≥ 264 h
estimated dose to achieve tenfold higher IC50 HEK-rRXFP2 cAMP activity for approximately 28 days in rat [6]: approximately 10 mg/kg
AUClast [6]: 3530 ± 746 µg·h/mL
Cmax [6]: 7860 ± 1750 ng/mL
Tmax [6]: 120 ± 42 h

IC50 (rat RXFP2 [3]): 0.14 nM
HEK293-rat RXFP2 cAMP % Max Response (rat RXFP2 [1]): 86.8%
IC50 (rat RXFP2 [1]): 21 nM
IC50 (rat RXFP2 [4]): 0.17 nM
IC50 (human RXFP2): > 1000 nM
IC50 (rat RXFP2 [7]): 0.05 nM
IC50 (rat RXFP2 [5]): 0.11 nM
B3: 2D4: RXFP2 monoclonal antibody from hybridoma, recombinantly expressed in a rat IgG2b backbone (antibody, V domains shown)
VH: QVQLKESGPGLVAPSQSLSITCTVSGFSLTTYGISWVRQPPGKGLEWLGVIWTGGGTNYNSALKSRLSISKDNSKSQVFLKMNSLQTDDTARYYCARTEGYYVMDYWGQGTSVTVSS
VL: B2 VL with S18T, T26S, Q42K, V51A, S53N, S77N, T94P, Y96W
half-life, extrapolated values [6]: ≥ 264 h
estimated dose to achieve tenfold higher IC50 HEK-rRXFP2 cAMP activity for approximately 28 days in rat [6]: approximately 9 mg/kg
AUClast [6]: 3210 ± 463 µg·h/mL
Cmax [6]: 7360 ± 1540 ng/mL
Tmax [6]: 168 ± 0 h

From PMC11162469, “Discovery of RXFP2 genetic association in resistant hypertensive men and RXFP2 antagonists for the treatment of resistant hypertension” (Scientific Reports, 2024)
